{"source": "paper PMC3556364", "key": {"[1]": {"target": "Azotobacter vinelandii ^NifIscA (Azotobacter vinelandii)", "assay": "SEC"}, "[2]": {"target": "Azotobacter vinelandii ^NifIscA (Azotobacter vinelandii)", "assay": "SEC", "remark": "listed apart in the source"}}, "note": "Where two headings read alike, the source gives them in different places."}
{"substance": "Azotobacter vinelandii ^NifIscA (natural protein)", "values": [{"measurement": "stoichiometry N", "setting": "[1]", "result": 2}, {"measurement": "stoichiometry N", "setting": "[2]", "result": 2}]}
